From the nanobody polyreactivity screen of Harvey et al. (2022)

Test: yeast display, Sf9 membrane polyspecificity reagent, FACS + sequencing; frameworks hold sequencing errors
In short: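 In a synthetic yeast display library (Saccharomyces cerevisiae BJ5465), nanobody expression was induced with galactose for 36–48 hours. FACS gates were set low and high (top ~1%) using anti-HA fluorescence for expression and streptavidin fluorescence for binding of the Sf9 membrane reagent. Each polyreactivity label is drawn from the gate of origin.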
In the case of “QVQLVESGGGLVQAGGSLRLSCAASGFIFRYYAMGWYRQAAGTERELVAAISGGGSSTYYADSVKGRFTISRDNAKNTVYLQMNSLKPEDTAVYYSTARYYYPAIKYDYCGQGTQVTVSS”, the “polyreactivity (PSR sort gate)” value is reported as “low polyreactivity”. In the case of “QVQLVESGGGLVQAGGSLRLSCAASGFIFRYYAMGWYRQAPGKERELVAAINRGGGTNYADSVKGRFTISRDNAKNTVYLQMNSLKPEDTAVYYCAAVIRTVRERYGYWGQGTQVTVSS”, the “polyreactivity (PSR sort gate)” value is reported as “high polyreactivity”. In the case of “QVQLVESGGGLVQAGGSLRLSCAASGFIFRYYAMGWYRQAPGKERELVAAINTGGTTYYADSVKGRFTISRDNAKNTVYLQMNSLKPEDTAVYYCATDGSPGYDWGQGTQVTVSS”, the “polyreactivity (PSR sort gate)” value is reported as “high polyreactivity”. With “QVQLVESGGGLVQAGGSLRLSCAASGFIFRYYAMGWYRQAPGKERELVAAISRTGGSTYYADSVKGRFTISRDNAKNTVYLQMNSLKPEDTAVYYCAADWWAWRAYYYWGQGTQVTVSS” the “polyreactivity (PSR sort gate)” value was “high polyreactivity”. In the case of “QVQLVESGGGLVQAGGSLRLSCAASGFIFRYYAMGWYRQAPGKERELVAAISSGGGTTYADSVKGRFTISRDNAKNTVYLQMNSLKPEDTAVYYCAAVSYYARYTYGYDYWGQGTQVTVSS”, the “polyreactivity (PSR sort gate)” value is reported as “high polyreactivity”. For “QVQLVESGGGLVQAGGSLRLSCAASGFIFRYYAMGWYRQAPGKERELVAAISSSGGSTRYADSVKGRFTISRDNAKNTVYLQMNSLKPEDTAVYYCAARRWRGRYWGDYWGQGTQVTVSS”, the “polyreactivity (PSR sort gate)” value was “high polyreactivity”. For “QVQLVESGGGLVQAGGSLRLSCAASGFIFRYYAMGWYRQAPGKERELVAAISWSGGSTYYADSVKGRFTISRDNAKNTVYLQMNSLKPEDTAVYYCAADRYAILFYAEDYWGQGTQVTVSS”, the “polyreactivity (PSR sort gate)” value was “low polyreactivity”. For “QVQLVESGGGLVQAGGSLRLSCAASGFIFRYYAMGWYRQAPGKERELVAAITWSGGSTYYADSVKGRFTISRDNAKNTVYLQMNSLKPEDTAVYYCAADLYYFRYPGYDYWGQGTQVTVSS”, the “polyreactivity (PSR sort gate)” value was “high polyreactivity”. In the case of “QVQLVESGGGLVQAGGSLRLSCAASGFIFRYYAMGWYRQAPGKERELVASIVWSGGNTYYADSVKGRFTISRDNAKNTVYLQMNSLKPEDTAVYYCNRRGMDWGQGTQVTVSS”, the “polyreactivity (PSR sort gate)” value is reported as “low polyreactivity”. For “QVQLVESGGGLVQAGGSLRLSCAASGFIFSFYAMGWYRQAPGKERALVAAINWSGGSTYYADSVKGRFTISRDNAKNTVYIQMNSLKPEDTEVYYCNAVQYFSIPKPVWLFVLRYYYWGQGTQVTVSS”, the “polyreactivity (PSR sort gate)” value was “low polyreactivity”. With “QVQLVESGGGLVQAGGSLRLSCAASGFIFSGNAMGWYRQAPGKERELVAAISTSGGRTYYADSVKGRFTISRDNAKNSDYLQMKSLKPEDTAVYYFNRAPWYRYTRDKYEYWGQGTQVTVSS” the “polyreactivity (PSR sort gate)” value was “high polyreactivity”. For “QVQLVESGGGLVQAGGSLRLSCAASGFIFSGNAMGWYRQAPGKERELVARIRSGDRTYYADSVKGRFTISRDNAKNTVYLQMNSLKPEDTAVYYCAAYAWYDWRSYFPILGYEYCGQGTQVTVSS”, the “polyreactivity (PSR sort gate)” value was “low polyreactivity”. In the case of “QVQLVESGGGLVQAGGSLRLSCAASGFIFSGNAMGWYRQAPGKERELVARIRSGDRTYYADSVKGRFTISRDNAKNTVYLQMNSLKPEDTAVYYCAAYAWYDWRSYFPILGYEYWGQGTQVTVSS”, the “polyreactivity (PSR sort gate)” value is reported as “low polyreactivity”. In the case of “QVQLVESGGGLVQAGGSLRLSCAASGFIFSGYAMGWYRQAPGKERELVAAITSSGGNTYYADSVKGRFTISRDNAKNTVYLQMNSLKAEDTAVYYCARYSIFRWTRDEYWGQGTQVTVSS”, the “polyreactivity (PSR sort gate)” value is reported as “high polyreactivity”. In the case of “QVQLVESGGGLVQAGGSLRLSCAASGFIFSGYVMGWYRQAPGKERELVAAITGSDGSTYYADSVKGRFTISRDNAKNTVYLQMNSLKPEDTAVYYCATTFQYYWFSLYDYWGQGTQVTVSS”, the “polyreactivity (PSR sort gate)” value is reported as “low polyreactivity”. For “QVQLVESGGGLVQAGGSLRLSCAASGFIFSKYAMGWYRQAPGKERELVAAISWSGGSTYYADSVKGRFTISRDNAKNTVYLQMNSLKPEDTAVYYCAADWYFELFRVYAEYDYWGQGTQVTVSS”, the “polyreactivity (PSR sort gate)” value was “low polyreactivity”. With “QVQLVESGGGLVQAGGSLRLSCAASGFIFSKYTMGWSRQAPGKERELVASISWSGGSTYYADSVKGRFTISRDTAKNTVFLQMNSLKPEDTAVYYCAAEAWGWVFGGYYYWGQGTQVTVSS” the “polyreactivity (PSR sort gate)” value was “low polyreactivity”. For “QVQLVESGGGLVQAGGSLRLSCAASGFIFSNYAMGWYRQAPGKERELVAAISWSGGNTYYADSVKGRFTISRDNAKNTVYLQMNSLKPEDTAVYYCTRVKAYYRWFLPRYQYNYWGQGTQVTVSS”, the “polyreactivity (PSR sort gate)” value was “high polyreactivity”. With “QVQLVESGGGLVQAGGSLRLSCAASGFIFSPYAMGWYRQAPGKERELVAAINGGGRTYYADSVKGRFTISRDNAKNTVYLQMNSLKPEDTAVYYCAVDPISQGHMDYWGQGTQVTVSS” the “polyreactivity (PSR sort gate)” value was “low polyreactivity”. In the case of “QVQLVESGGGLVQAGGSLRLSCAASGFIFSPYAMGWYRQAPGKERELVAAISSGTRTNYADSVKGRFTISRDNAKNTVYLQMNSLKPEDTAVYYCAAKYRGTYDSRVYYWFYYWGQGTQVTVSS”, the “polyreactivity (PSR sort gate)” value is reported as “high polyreactivity”. For “QVQLVESGGGLVQAGGSLRLSCAASGFIFSPYAMGWYRQAPGKERELVATITWSGGRTYYADSVKGRFTISRDNAKNTVYLQMNSLKPEDTAVYYCNADGYQPALNKDFGYWGQGTQVTVSS”, the “polyreactivity (PSR sort gate)” value was “low polyreactivity”. In the case of “QVQLVESGGGLVQAGGSLRLSCAASGFIFSQNAMGWYRQAPGKERELVAAITSGGGTNYADSVKGRFTISRDNAKNTVYLQMNSLKPEDTAVYYCAADDEKRYSYQTYFERDYWGQGTQVTVSS”, the “polyreactivity (PSR sort gate)” value is reported as “low polyreactivity”. In the case of “QVQLVESGGGLVQAGGSLRLSCAASGFIFSQNVMGWYRQAPGKERELVAAISSSGGSTYYADSVKGRFTISRDNAKNTVYLQMNSLKREDTAVYYCAARPYVRFNYWGQGTQVTVSS”, the “polyreactivity (PSR sort gate)” value is reported as “high polyreactivity”. For “QVQLVESGGGLVQAGGSLRLSCAASGFIFSRNAMGWYRQAPGKERELVAAITRGGITYYADSVKGRFTISRDNAKNTVYLQMNSLKPEDTAVYYCAAYRTYQAYTGSHYYYWGQGTQVTVSS”, the “polyreactivity (PSR sort gate)” value was “high polyreactivity”. In the case of “QVQLVESGGGLVQAGGSLRLSCAASGFIFSRNAMGWYRQAPGKERELVATISKRGGSTYYADSVKGRFTISRDNAKNTVYLQMNSLKPEDTAVYYCAATGGILSTYDYWGQGTQVTVSS”, the “polyreactivity (PSR sort gate)” value is reported as “high polyreactivity”. In the case of “QVQLVESGGGLVQAGGSLRLSCAASGFIFSRYAMGWYRQAPGKERELVAAIRFSGSITYYADSVKGRFTISRDNAKNTVYLQMNSLKPEDTAVYYCAAYRRYYGWYEYWGQGTQVTVSS”, the “polyreactivity (PSR sort gate)” value is reported as “high polyreactivity”. For “QVQLVESGGGLVQAGGSLRLSCAASGFIFSRYAMGWYRQAPGKERELVAAISIGGSTYYADSVKGRFTISRDNAKNTVYVQMNSLKPEDTAVYYCPVDYRHSSSWNAGPWEMYYWGQGTQVTVSS”, the “polyreactivity (PSR sort gate)” value was “low polyreactivity”. With “QVQLVESGGGLVQAGGSLRLSCAASGFIFSRYAMGWYRQAPGKVRELVASISWGGGSTSYADSVKGRFTISRDNAKNTVYLQMNSLKPEDTAVYYCNARVRSHRFNYWGQGTQVTVSS” the “polyreactivity (PSR sort gate)” value was “high polyreactivity”. For “QVQLVESGGGLVQAGGSLRLSCAASGFIFSRYPMGWYRQAPGKERELVASISWRGGSTSYADSVKGRFTISRDNAKNTVYLQMNSLKPEDTAVYYCAASSRQVLEYDYWGQGTQVTVSS”, the “polyreactivity (PSR sort gate)” value was “high polyreactivity”. In the case of “QVQLVESGGGLVQAGGSLRLSCAASGFIFSRYSMGWYRQAPGKERELVAGITSRGGITYYADSVKGRFTISRDNAKNTVYLQMNSLIPEDTAVYYCNAGKSLSKSFDYWGQGTQVTVSS”, the “polyreactivity (PSR sort gate)” value is reported as “high polyreactivity”. In the case of “QVQLVESGGGLVQAGGSLRLSCAASGFIFSRYVMGWYRQAPGKERELVAAISGSGGRTYYADSVKGRFTISRDKAKNTVYLQMNSLKPEDTAVYYCAARFLSPYHYYYWGQGTQVTVSS”, the “polyreactivity (PSR sort gate)” value is reported as “high polyreactivity”. For “QVQLVESGGGLVQAGGSLRLSCAASGFIFSSNAMGGYRQAPGKERELDATISFSGDSTYYADSVKGRFTISRDNEKNTVYLQMNSLKPEDTAVYYCARSTYYRWYKYGYYDYNYWGQGTQVTVSS”, the “polyreactivity (PSR sort gate)” value was “low polyreactivity”. For “QVQLVESGGGLVQAGGSLRLSCAASGFIFSSNAMGWYRQAPGKERELVAGITASGVSTYYADSVKGRFTISRDNAKNTVYLQMNSLKPEDTAVYYCAALGLYYYFYSQYIDWDDYWGQGTQVTVSS”, the “polyreactivity (PSR sort gate)” value was “low polyreactivity”. With “QVQLVESGGGLVQAGGSLRLSCAASGFIFSSNAMGWYRQAPGKERELVATISFSGESTYYADSVKGRFTISRDNAKNTVYLQMNSLKPEDTAVYYCARRTYYRWYKYGYYDYNYWRQGTQVTVSS” the “polyreactivity (PSR sort gate)” value was “low polyreactivity”. With “QVQLVESGGGLVQAGGSLRLSCAASGFIFSSYAMAWYRQAPGKERDLVAAISKSGDRTSYADSVKGRFTISRDNAKNTVYLQMNSLKPEDTAVYYCAKDRLYRTKKYRDMYYWGQGTQVSVSS” the “polyreactivity (PSR sort gate)” value was “high polyreactivity”. For “QVQLVESGGGLVQAGGSLRLSCAASGFIFSTYAMGWYRQAPGKERELVASIDWSGDSTYYADSVKGRFTISRDNAKNTVYLQMTSLKPEDTAVYEFAADDASYPYIFDSYDYWGQGTQVTVSS”, the “polyreactivity (PSR sort gate)” value was “low polyreactivity”. In the case of “QVQLVESGGGLVQAGGSLRLSCAASGFIFSVNAMGWYRQAPGKERELVADISCRGTSTNYADSVKGRFTISRDNAKNTVYLQMNSLKPEDTAVYYCAADGQLHMDYWGQGTQVTVSS”, the “polyreactivity (PSR sort gate)” value is reported as “high polyreactivity”. In the case of “QVQLVESGGGLVQAGGSLRLSCAASGFIFSWYAMGWYRQAPGKERELVAAISYSGSNTYYADSVKGRFTISRDNAKNTVYLQMNSLKPEDTAVYYCAATLGSRWAIYDYWGQGTQVTVSS”, the “polyreactivity (PSR sort gate)” value is reported as “high polyreactivity”. For “QVQLVESGGGLVQAGGSLRLSCAASGFIFSWYAMGWYRQAPGKERELVATISSSGGRTHYADSVKGRFTISRDNAKNTVYLQMNSLKPEDTAVYYCAAQPFSYFTTVYYWGQGTQVTVSS”, the “polyreactivity (PSR sort gate)” value was “high polyreactivity”. For “QVQLVESGGGLVQAGGSLRLSCAASGFIFSYCAKGRYRQAPGKERELVAAISRSGGRTYYADSVKGRYTISRDNAKNTVYLQMNSLKPEDTAVYYCAAPVSLRPIYDYWGQGTQVTVSS”, the “polyreactivity (PSR sort gate)” value was “high polyreactivity”.
